Measurements: publication PMC4453472, “First Glycoside Hydrolase Family 2 Enzymes from Thermus antranikianii and Thermus brockianus with β-Glucosidase Activity” (Frontiers in Bioengineering and Biotechnology, 2015)

Columns and labels:
Assay in all cases: purified protein
[1] = tested on: T1, O=[N+]([O-])c1ccc(O[C@@H]2O[C@H](CO)[C@@H](O)[C@H](O)[C@H]2O)cc1; assay type: biochemical, Thermus antranikianii; conditions: 90°C, 20 mM citrate buffer pH 6.5, 0-10 mM substrate, 10 min
T1 construct: recombinant, pQE-80L (His-tag vector) in E. coli BL21 Star(DE3); heat precipitation and Ni-NTA

[2] = tested on: T2, O=[N+]([O-])c1ccc(O[C@@H]2O[C@H](CO)[C@H](O)[C@H](O)[C@H]2O)cc1; assay type: biochemical, Thermus antranikianii; conditions: 90°C, 20 mM citrate buffer pH 6.5, 0-25 mM substrate, 10 min
T2 construct: recombinant, pQE-80L (His-tag vector) in E. coli BL21 Star(DE3); heat precipitation and Ni-NTA

[3] = substrate: O=[N+]([O-])c1ccc(O[C@@H]2O[C@H](CO)[C@@H](O)[C@H](O)[C@H]2O)cc1; conditions: 90°C, 20 mM maleate buffer pH 6.5, 0-10 mM substrate, 10 min
[4] = substrate: O=[N+]([O-])c1ccc(O[C@@H]2O[C@H](CO)[C@H](O)[C@H](O)[C@H]2O)cc1; conditions: 90°C, 20 mM maleate buffer pH 6.5, 0-25 mM substrate, 10 min

| Molecule | Km [1] [µM] | Vmax [1] [µmol/min/mg] | kcat [1] [s⁻¹] | kcat/Km [1] [M⁻¹ s⁻¹] | Km [2] [µM] | Vmax [2] [µmol/min/mg] | kcat [2] [s⁻¹] | kcat/Km [2] [M⁻¹ s⁻¹] | Km [3] [µM] | Vmax [3] [µmol/min/mg] | kcat [3] [s⁻¹] | kcat/Km [3] [M⁻¹ s⁻¹] | Km [4] [µM] | Vmax [4] [µmol/min/mg] | kcat [4] [s⁻¹] | kcat/Km [4] [M⁻¹ s⁻¹] |
| --- | --- | --- | --- | --- | --- | --- | --- | --- | --- | --- | --- | --- | --- | --- | --- | --- |
| TaGH2 (Thermus antranikianii) | 730 ± 30 | 4028 ± 21 | 21600 | 2.95e+07 | 2200 ± 20 | 2615 ± 3 | 14000 | 6.36e+06 | – | – | – | – | – | – | – | – |
| TbGH2 (Thermus brockianus) (protein) RLKSALFLAHPAGEPEALPEEGWREVALPHQWTLEGLEAEVGWYRLTLPEGGPRRFLRSLGDYYQEAWLEGRFLGRHEGYFFPWLLELPPGKELYLRVSAPKEPLGQWPRFKRQIKGVLGQHDCRPGGVSPRGQERGTGGLWGGVEVVFREEVALLHLTHRLHPRPGGWRLLVRLLLDAPRPFAERVLLRLSPENFPGEAWTQEVGLRGDAGRGYREVVWDLPEMPLWEVWERGFPHLFRLEAELAQAQVSAPLGFRTVAWDEEGWLLLNGRRLFLRGTNHIPTQWLAAYSQALAEKDVALLKEAGLNAVRVHAHLTHPVFYEVCDREGVLVWQDFPLQWGYAPDEAFAEEAVRQVRAMVEHYGAHPSIYLWCAQNEPTHNRHALGPLLAAELRAQDPSRLVKEASDFREHPYPGWYWGHFRDFLALPGAPLPSEFGAQALPRAELLRRVLGEAAWPPKWEVWAYHNFQPHETFRVAGVEMGTSLESFVENSQAYQARLLSFAIHVYRRAKGKVVGYFQFLFAEPWEGITWAVLDVERIPKKGFHALKEASSPVLLSLVPYRERLEVGGVPLWEAWLVNDLERPLTLRVALALEGPVALPLWEGEVAVAGGEVRRFFSLGELWESPWEAQERLMRVAEALRRLPPGRYRLVGEAWEGERLWSRQVVELVYLEPLVPPGEAW | – | – | – | – | – | – | – | – | 500 ± 20 | 778 | 3900 | 7.8e+06 | 3560 ± 70 | 1333 ± 11 | 6680 | 1.88e+06 |
